Numbering of substitutions follows the chain as printed. In names and notes the source's numbering stands.
Tests used:
HELQ(K365M);RPA-mRFP1 = HELQ(K365M);RPA-mRFP1 (human;human, UniProt Q8TDG4;P27694;P15927;P35244 1-1101;1-616;1-270;1-121, K365M|); assay: pull-down; via biotin-dT43 on streptavidin beads; RPA fusion not stated; EMSA: 25 mM Tris-HCl pH 8.0, 2 mM ATP, 2 mM MgCl2, 1 mM DTT, 50 mM NaCl, 0.1 mg/ml BSA, 25 nM DNA, 10 min 37 C (20 min for RAD51 +/- HELQ); single-molecule at room temperature in similar buffer; conditions: protein: recombinant;recombinant; tags: C-terminal Flag; N-terminal MBP removed with PreScission;mRFP1; copies: 1;1;1;1; label: Cy3 (5' in oligo list, 3' in capture assay); single strand
HELQ;RPA-mRFP1 = HELQ;RPA-mRFP1 (human;human, UniProt Q8TDG4;P27694;P15927;P35244 1-1101;1-616;1-270;1-121, |); assay: pull-down; via biotin-dT43 on streptavidin beads; 82 nM RPA, fusion not stated; EMSA: 25 mM Tris-HCl pH 8.0, 2 mM ATP, 2 mM MgCl2, 1 mM DTT, 50 mM NaCl, 0.1 mg/ml BSA, 25 nM DNA, 10 min 37 C (20 min for RAD51 +/- HELQ); single-molecule at room temperature in similar buffer; conditions: protein: recombinant;recombinant; tags: C-terminal Flag; N-terminal MBP removed with PreScission;mRFP1; copies: 1;1;1;1; label: Cy3 (5' in oligo list, 3' in capture assay); single strand
HELQ;RPA-eGFP [1] = biological target: T1, HELQ;RPA-eGFP (human;human, UniProt Q8TDG4;P27694;P15927;P35244 1-1101;1-616;1-270;1-121, |); assay: single-molecule oligo capture; capture on RPA-eGFP-coated lambda ssDNA; EMSA: 25 mM Tris-HCl pH 8.0, 2 mM ATP, 2 mM MgCl2, 1 mM DTT, 50 mM NaCl, 0.1 mg/ml BSA, 25 nM DNA, 10 min 37 C (20 min for RAD51 +/- HELQ); single-molecule at room temperature in similar buffer; conditions: protein: recombinant;recombinant; tags: C-terminal Flag; N-terminal MBP removed with PreScission;eGFP; copies: 1;1;1;1; label: Cy3 (5' in oligo list, 3' in capture assay); single strand
HELQ(K365M);RPA-eGFP = HELQ(K365M);RPA-eGFP (human;human, UniProt Q8TDG4;P27694;P15927;P35244 1-1101;1-616;1-270;1-121, K365M|); assay: single-molecule oligo capture; capture on RPA-eGFP-coated lambda ssDNA; dwell time 179 s; EMSA: 25 mM Tris-HCl pH 8.0, 2 mM ATP, 2 mM MgCl2, 1 mM DTT, 50 mM NaCl, 0.1 mg/ml BSA, 25 nM DNA, 10 min 37 C (20 min for RAD51 +/- HELQ); single-molecule at room temperature in similar buffer; conditions: protein: recombinant;recombinant; tags: C-terminal Flag; N-terminal MBP removed with PreScission;eGFP; copies: 1;1;1;1; label: 5' Cy3; single strand
HELQ;RPA-eGFP [2] = biological target: T1, HELQ;RPA-eGFP; assay: single-molecule oligo capture; capture on RPA-eGFP-coated lambda ssDNA; dwell time 134 s; EMSA: 25 mM Tris-HCl pH 8.0, 2 mM ATP, 2 mM MgCl2, 1 mM DTT, 50 mM NaCl, 0.1 mg/ml BSA, 25 nM DNA, 10 min 37 C (20 min for RAD51 +/- HELQ); single-molecule at room temperature in similar buffer; conditions: protein: recombinant;recombinant; tags: C-terminal Flag; N-terminal MBP removed with PreScission;eGFP; copies: 1;1;1;1; label: 5' Cy3; single strand
HELQ(K365M) [3] = biological target: T2, HELQ(K365M) (human, UniProt Q8TDG4 1-1101, K365M); assay: EMSA; 2 mM ATP, 2 mM Mg2+; EMSA: 25 mM Tris-HCl pH 8.0, 2 mM ATP, 2 mM MgCl2, 1 mM DTT, 50 mM NaCl, 0.1 mg/ml BSA, 25 nM DNA, 10 min 37 C (20 min for RAD51 +/- HELQ); single-molecule at room temperature in similar buffer; conditions: protein: recombinant, tags: C-terminal Flag, N-terminal MBP removed with PreScission
T2 sequence: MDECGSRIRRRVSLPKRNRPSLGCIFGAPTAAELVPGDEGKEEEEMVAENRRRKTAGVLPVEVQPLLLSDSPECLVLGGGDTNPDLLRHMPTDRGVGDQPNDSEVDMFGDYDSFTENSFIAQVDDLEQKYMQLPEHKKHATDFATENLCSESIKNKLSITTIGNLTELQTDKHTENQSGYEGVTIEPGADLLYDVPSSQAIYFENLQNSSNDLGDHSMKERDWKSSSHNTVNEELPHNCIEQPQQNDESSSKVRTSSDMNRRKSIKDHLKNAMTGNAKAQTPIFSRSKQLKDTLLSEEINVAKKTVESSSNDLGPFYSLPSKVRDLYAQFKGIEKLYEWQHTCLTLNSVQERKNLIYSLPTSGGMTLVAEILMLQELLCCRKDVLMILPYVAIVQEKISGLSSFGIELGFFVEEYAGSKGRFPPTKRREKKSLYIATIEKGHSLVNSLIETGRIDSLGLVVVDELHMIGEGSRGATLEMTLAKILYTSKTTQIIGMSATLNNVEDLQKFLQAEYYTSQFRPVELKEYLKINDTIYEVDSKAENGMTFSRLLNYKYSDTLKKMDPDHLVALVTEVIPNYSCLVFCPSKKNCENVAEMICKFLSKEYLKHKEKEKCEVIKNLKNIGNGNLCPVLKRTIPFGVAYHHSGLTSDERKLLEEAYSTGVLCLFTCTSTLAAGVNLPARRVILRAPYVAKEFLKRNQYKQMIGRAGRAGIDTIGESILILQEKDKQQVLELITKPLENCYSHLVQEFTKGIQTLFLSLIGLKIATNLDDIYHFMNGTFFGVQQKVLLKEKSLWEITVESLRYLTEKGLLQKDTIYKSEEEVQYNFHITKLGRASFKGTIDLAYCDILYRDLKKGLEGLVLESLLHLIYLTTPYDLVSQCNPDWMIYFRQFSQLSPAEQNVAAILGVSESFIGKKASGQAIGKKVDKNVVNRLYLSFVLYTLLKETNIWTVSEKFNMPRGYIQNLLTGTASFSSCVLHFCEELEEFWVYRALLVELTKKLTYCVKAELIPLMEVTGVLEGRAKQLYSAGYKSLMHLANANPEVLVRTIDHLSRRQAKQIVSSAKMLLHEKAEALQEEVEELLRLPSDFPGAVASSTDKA

HELQ(K365M) [4] = biological target: T3, HELQ(K365M) (human, UniProt Q8TDG4 1-1101, K365M); assay: single-molecule imaging (optical tweezers with confocal microscopy, C-Trap); gapped λ-DNA held between beads at constant force of 50 pN; 25 nM Alx–RAD51 with or without 50 nM HELQ or HELQ(K365M) in 1× HELQ buffer (25 mM Tris-HCl pH 8.0, 2 mM MgCl2, 50 mM NaCl), 2 mM ATP, 0.2 mg/ml BSA, 1 mM DTT; room temperature; kymographs of Alx–RAD51; conditions: both partners purified
T3 construct: human HELQ helicase with the helicase-dead mutation K365M, made from pFB-MBP-HELQ-Flag by site-directed mutagenesis; also called helicase-dead HELQ; HELQ KM; source: Sf9 insect cells, purified (same procedure as wild-type HELQ); not shown: MBP, N-terminal, cleaved
T3 sequence (looked up): T2 sequence

[5] = biological target: T4, HELQ (wild type, purified recombinant human HELQ) (human, UniProt Q8TDG4 1-1101); assay: as above; conditions: both partners purified
T4 construct: human HELQ helicase; custom HELQ ORF (GeneArt); Eluted from Flag resin with 3xFlag peptide; no removal of the Flag tag is described; also called HELQ WT; WT HELQ; source: Sf9 insect cells, purified (amylose, PreScission cleavage of MBP, anti-Flag resin); not shown: MBP, N-terminal, cleaved
T4 sequence (looked up): T2 sequence with M365K

T1 sequence (P27694 whole entry, chain 2 of 3): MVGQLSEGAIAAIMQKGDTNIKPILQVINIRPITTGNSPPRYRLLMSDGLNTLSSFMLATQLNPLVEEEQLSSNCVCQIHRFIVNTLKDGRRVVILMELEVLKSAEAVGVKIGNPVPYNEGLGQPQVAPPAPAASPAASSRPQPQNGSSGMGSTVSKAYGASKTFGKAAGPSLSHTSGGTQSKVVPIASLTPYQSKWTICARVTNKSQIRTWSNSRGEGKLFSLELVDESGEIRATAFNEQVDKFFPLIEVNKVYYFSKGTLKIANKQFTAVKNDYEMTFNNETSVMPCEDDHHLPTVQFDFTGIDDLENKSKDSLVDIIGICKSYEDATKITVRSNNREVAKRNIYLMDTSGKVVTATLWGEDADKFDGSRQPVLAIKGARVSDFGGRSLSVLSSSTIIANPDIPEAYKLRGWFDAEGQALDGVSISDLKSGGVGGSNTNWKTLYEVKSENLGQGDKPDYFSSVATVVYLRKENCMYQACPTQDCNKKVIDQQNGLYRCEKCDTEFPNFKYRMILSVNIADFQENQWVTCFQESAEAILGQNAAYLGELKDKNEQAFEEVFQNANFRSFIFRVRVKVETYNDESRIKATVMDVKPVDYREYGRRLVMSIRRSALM
T1 sequence (P15927 whole entry, chain 3 of 3): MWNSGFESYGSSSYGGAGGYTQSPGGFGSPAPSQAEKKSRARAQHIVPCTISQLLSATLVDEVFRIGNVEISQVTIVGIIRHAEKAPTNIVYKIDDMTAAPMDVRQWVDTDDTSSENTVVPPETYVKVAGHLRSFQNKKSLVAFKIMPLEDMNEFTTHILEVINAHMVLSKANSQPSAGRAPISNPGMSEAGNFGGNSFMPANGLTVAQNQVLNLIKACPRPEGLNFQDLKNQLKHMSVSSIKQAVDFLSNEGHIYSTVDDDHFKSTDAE
T1 sequence (P35244 whole entry, chain 4 of 3): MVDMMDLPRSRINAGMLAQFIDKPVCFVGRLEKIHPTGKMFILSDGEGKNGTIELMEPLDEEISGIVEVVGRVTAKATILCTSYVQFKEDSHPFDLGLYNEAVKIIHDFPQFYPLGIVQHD
HELQ(K365M);RPA-mRFP1, sequence (P27694 whole entry, chain 2 of 3, the tested form may be a part): as the sequence (P27694 whole entry, chain 2 of 3) above
HELQ(K365M);RPA-mRFP1, sequence (P15927 whole entry, chain 3 of 3, the tested form may be a part): as the sequence (P15927 whole entry, chain 3 of 3) above
HELQ(K365M);RPA-mRFP1, sequence (P35244 whole entry, chain 4 of 3, the tested form may be a part): as the sequence (P35244 whole entry, chain 4 of 3) above
HELQ(K365M);RPA-eGFP, sequence (P27694 whole entry, chain 2 of 3): as the sequence (P27694 whole entry, chain 2 of 3) above
HELQ(K365M);RPA-eGFP, sequence (P15927 whole entry, chain 3 of 3): as the sequence (P15927 whole entry, chain 3 of 3) above
HELQ(K365M);RPA-eGFP, sequence (P35244 whole entry, chain 4 of 3): as the sequence (P35244 whole entry, chain 4 of 3) above
HELQ;RPA-mRFP1, sequence (P27694 whole entry, chain 2 of 3, the tested form may be a part): as the sequence (P27694 whole entry, chain 2 of 3) above
HELQ;RPA-mRFP1, sequence (P15927 whole entry, chain 3 of 3, the tested form may be a part): as the sequence (P15927 whole entry, chain 3 of 3) above
HELQ;RPA-mRFP1, sequence (P35244 whole entry, chain 4 of 3, the tested form may be a part): as the sequence (P35244 whole entry, chain 4 of 3) above

B1: dT79 (ssDNA)
DNA: TTTTTTTTTTTTTTTTTTTTTTTTTTTTTTTTTTTTTTTTTTTTTTTTTTTTTTTTTTTTTTTTTTTTTTTTTTTTTTT
- binding result (HELQ(K365M);RPA-mRFP1): binds
- binding result (HELQ;RPA-mRFP1): binds
- binding result (HELQ;RPA-eGFP [1]): binds

B2: lambda4 80-mer (ssDNA)
DNA: CCTGAACGACCAGGCGTCTTCGTTCATCTATCGGATCGCCACACTCACAACAATGAGTGGCAGATATAGCCTGGTGGTTC
- binding result (HELQ(K365M);RPA-eGFP): binds
- binding result (HELQ;RPA-eGFP [2]): binds

Binder: AGCTACCATGCCTGCACGAATTAAGCAATTCGTAATCATGGTCATAGCT (ssDNA) [ssDNA (oligo 1)]
- binding result (HELQ(K365M) [3]; label: 5' FITC, single strand 49 nt): binds

B3: dsDNA (oligo 1 + oligo 2) (dsDNA)
DNA 1: AGCTACCATGCCTGCACGAATTAAGCAATTCGTAATCATGGTCATAGCT
DNA 2: AGCTATGACCATGATTACGAATTGCTTAATTCGTGCAGGCATGGTAGCT
- binding result (HELQ(K365M) [3]; label: 5' FITC on strand 1, blunt 49 bp): binds

B4: Alx–RAD51 (RAD51(C319S) labelled with Alexa Fluor 488 C5 maleimide) (natural protein, human, UniProt Q06609 1-339, looked up)
chain: MAMQMQLEANADTSVEEESFGPQPISRLEQCGINANDVKKLEEAGFHTVEAVAYAPKKELINIKGISEAKADKILAEAAKLVPMGFTTATEFHQRRSEIIQITTGSKELDKLLQGGIETGSITEMFGEFRTGKTQICHTLAVTCQLPIDRGGGEGKAMYIDTEGTFRPERLLAVAERYGLSGSDVLDNVAYARAFNTDHQTQLLYQASAMMVESRYALLIVDSATALYRTDYSGRGELSARQMHLARFLRMLLRLADEFGVAVVITNQVVAQVDGAAMFAADPKKPIGGNIIAHASTTRLYLRKGRGETRICKIYDSPSLPEAEAMFAINADGVGDAKD
modifications: Alexa Fluor 488 C5 maleimide label (1:1 labelling stoichiometry; labelled residue not given)
notes: human RAD51 recombinase with the mutation C319S; also called RAD51(A488); source: E. coli, purified as WT RAD51, then labelled and separated from free dye (Zeba column)
- binding result (HELQ(K365M) [4]): binds
- binding result [5]: binds

Source: PMC8755542, “HELQ is a dual-function DSB repair enzyme modulated by RPA and RAD51” (Nature, 2021)
